Experimental data published in paper PMC11514452, “Stochastic nature and physiological implications of 5′-NAD RNA cap in bacteria” (Nucleic Acids Research, 2024).
pKd, pKi: −log10 of the molar value.

Experiments:
70S ribosome [1] = experiment: BLI; settings: tRNAfMet (2-fold molar excess), 10 mM Tris-HCl pH 7.4, 60 mM NH4Cl, RelE assay also 6 mM beta-mercaptoethanol, 37 C 10 min, BLI temperature not stated
70S ribosome [2] = experiment: footprinting (RelE printing, ribosome titration); settings: tRNAfMet, RelE toxin, 10 mM Tris-HCl pH 7.4, 60 mM NH4Cl, RelE assay also 6 mM beta-mercaptoethanol, 37 C 10 min, BLI temperature not stated
NudC = biological target: T1, NudC (Escherichia coli, UniProt P32664); experiment: NAD-RNA de-capping in vitro, gel read-out, ppGpp titration; type: biochemical; settings: read-out: inhibition constant
T1 construct: homodimer by known biology
T1 sequence (P32664 1-257): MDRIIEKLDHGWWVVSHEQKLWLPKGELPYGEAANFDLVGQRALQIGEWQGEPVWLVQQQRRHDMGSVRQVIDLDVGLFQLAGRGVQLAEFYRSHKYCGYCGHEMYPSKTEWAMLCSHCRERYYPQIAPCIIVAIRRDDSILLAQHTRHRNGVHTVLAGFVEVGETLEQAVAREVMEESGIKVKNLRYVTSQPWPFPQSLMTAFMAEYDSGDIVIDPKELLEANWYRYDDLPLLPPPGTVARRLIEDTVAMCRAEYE

[3] = 10 mM Mg(OAc)2, 5'-NAD (first A replaced by NAD, start codon NAD-UG)
[4] = 10 mM Mg(OAc)2, 5'-triphosphate

Molecule: AUGAGCACAAAAAAGAAACCAUUAACACAAGAGCAGCUUGAGGACGCACGUCGCCUUAAAGCAAUUUAUG [NAD-cI(1-70) leaderless mRNA]
- pKd (70S ribosome [1]; [3]): 8.37
- K half (70S ribosome [2]; [3]): 4.3 nM

Molecule: AUGAGCACAAAAAAGAAACCAUUAACACAAGAGCAGCUUGAGGACGCACGUCGCCUUAAAGCAAUUUAUG [ppp-cI(1-70) leaderless mRNA]
- pKd (70S ribosome [1]; [4]): 8.46
- K half (70S ribosome [2]; [4]): 3.8 nM

Molecule: Nc1nc2c(ncn2[C@@H]2O[C@H](COP(=O)(O)OP(=O)(O)O)[C@@H](OP(=O)(O)OP(=O)(O)O)[C@H]2O)c(=O)[nH]1 [ppGpp]
- pKi (NudC): ~4.15
